Measurements: the supplement of paper PMC10724198
± gives the standard deviation of the averaged measurements.

What was measured:
Saccharomyces cerevisiae [1] = assay: protein stability index of tFT-peptide fusion (C-terminal peptide) (PSI (0-1 scale)); higher = more stable (slower turnover)
Protocol: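 MPS profiling in S. cerevisiae of the tFT-X12 degron library: putative degron peptides plus stable controls, 12 aa, fused to the C-terminus of a sfGFP-mCherry timer. Cells are FACS-sorted into 8 mCherry/sfGFP bins and deep-sequenced. PSI runs from 0 (unstable) to 1 (stable). Backgrounds are wild type, das1Δ and doa10Δ at 30 °C, and wild type, das1Δ, cdc34-1 and cdc53-1 at 37 °C; 2-3 technical replicates each.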

Saccharomyces cerevisiae [2] = assay: as above; conditions: genetic background: wild type; temperature: 30 C
[3] = genetic background: cdc34-1, temperature: 37 C
[4] = genetic background: cdc53-1, temperature: 37 C
[5] = genetic background: das1 deletion, temperature: 30 C
[6] = genetic background: das1 deletion, temperature: 37 C
[7] = genetic background: doa10 deletion, temperature: 30 C
[8] = genetic background: wild type, temperature: 30 C
[9] = genetic background: wild type, temperature: 37 C
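Further: PSI is a weighted mean of sequencing reads over stability bins, variants kept only with over 10 reads, mCherry proximal and sfGFP distal, peptide attached via GGGS linker.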

Sequence	protein stability index (Saccharomyces cerevisiae [1]; [3])	protein stability index (Saccharomyces cerevisiae [1]; [4])	protein stability index (Saccharomyces cerevisiae [1]; [5])	protein stability index (Saccharomyces cerevisiae [1]; [6])	protein stability index (Saccharomyces cerevisiae [1]; [7])	protein stability index (Saccharomyces cerevisiae [1]; [8])	protein stability index (Saccharomyces cerevisiae [1]; [9])	protein stability index (Saccharomyces cerevisiae [2])
WDSCVGRRGIVA	0.559 ± 0.025	0.63 ± 0.021	0.402 ± 0.035	0.62 ± 0.025	0.388 ± 0.013	0.42 ± 0.021	0.6038 ± 0.0016	0.4869 ± 0.0015
VFLSLVFFFIIT	0.254 ± 0.011	0.343 ± 0.0077	0.282 ± 0.035	0.43 ± 0.005	0.287 ± 0.013	0.275 ± 0.019	0.392 ± 0.021	0.367 ± 0.026
GMCRVELIATCG	0.368 ± 0.039	0.409 ± 0.018	0.276 ± 0.036	0.453 ± 0.011	0.229 ± 0.0046	0.28 ± 0.026	0.4381 ± 0.0011	0.307 ± 0.031
RGDWPVFIQVKA	0.285 ± 0.032	0.309 ± 0.04	0.262 ± 0.035	0.426 ± 0.022	0.205 ± 0.022	0.255 ± 0.043	0.387 ± 0.023	0.418 ± 0.05
FFFLLPRLFRCV	0.791 ± 0.053	0.835 ± 0.012	0.707 ± 0.03	0.773 ± 0.011	0.445 ± 0.018	0.449 ± 0.012	0.5611 ± 0.0017	0.45 ± 0.017
VWSFFTSFIRYI	0.5614 ± 0.0036	0.647 ± 0.018	0.6542 ± 0.0065	0.752 ± 0.041	0.106 ± 0.0018	0.109 ± 0.022	0.114 ± 0.0081	0.169 ± 0.028
CLGFWVCCYCLV	0.537 ± 0.037	0.589 ± 0.044	0.474 ± 0.006	0.592 ± 0.0093	0.246 ± 0.0084	0.281 ± 0.035	0.48 ± 0.017	0.396 ± 0.029
SIFSIRRQISFS	0.662 ± 0.0077	0.743 ± 0.009	0.653 ± 0.017	0.724 ± 0.012	0.327 ± 0.0085	0.346 ± 0.014	0.5729 ± 0.0022	0.418 ± 0.015
LLSLTLALPLAA	0.392 ± 0.0064	0.434 ± 0.014	0.337 ± 0.034	0.461 ± 0.0074	0.296 ± 0.0033	0.349 ± 0.022	0.4518 ± 0.0011	0.455 ± 0.047
SPLLLIIFRSLC	0.505 ± 0.096	0.558 ± 0.0093	0.436 ± 0.039	0.623 ± 0.025	0.107 ± 0.0011	0.119 ± 0.0077	0.183 ± 0.019	0.18 ± 0.038
RSWMRHVLRVAS	0.543 ± 0.048	0.701 ± 0.0072	0.525 ± 0.026	0.719 ± 0.025	0.0958 ± 0.0031	0.104 ± 0.01	0.154 ± 0.013	0.194 ± 0.004
LSLSLQVVVFSM	0.438 ± 0.034	0.497 ± 0.022	0.317 ± 0.024	0.484 ± 0.0062	0.3203 ± 0.00038	0.322 ± 0.021	0.457 ± 0.022	0.467 ± 0.022
FLLIVSSVSFYL	0.209 ± 0.016	0.2981 ± 0.00045	0.213 ± 0.024	0.3885 ± 0.0014	0.177 ± 0.0069	0.207 ± 0.021	0.346 ± 0.0035	0.342 ± 0.052
DHSIYYGVAKVF	0.484 ± 0.017	0.652 ± 0.012	0.5745 ± 0.0018	0.694 ± 0.018	0.0729 ± 0.022	0.0841 ± 0.024	0.09554 ± 0.00036	0.163 ± 0.055
LAGLFICTLISC	0.159 ± 0.0021	0.176 ± 0.0055	0.203 ± 0.023	0.2775 ± 0.0013	0.185 ± 0.012	0.191 ± 0.029	0.2449 ± 0.00042	0.254 ± 0.071
SVCCSLLAVASP	0.311 ± 0.035	0.355 ± 0.016	0.364 ± 0.022	0.323 ± 0.016	0.392 ± 0.029	0.384 ± 0.027	0.29 ± 0.0066	0.3666 ± 0.0026
AIREVQYSFFPS	0.681 ± 0.041	0.755 ± 0.018	0.652 ± 0.0074	0.7527 ± 0.0042	0.6445 ± 0.0018	0.66 ± 0.012	0.723 ± 0.016	0.715 ± 0.021
EINRKKRKTKIN	0.704 ± 0.047	0.7155 ± 0.0039	0.67 ± 0.047	0.771 ± 0.011	0.312 ± 0.023	0.373 ± 0.018	0.465 ± 0.044	0.436 ± 0.04
SFFSFLLLRVPC	0.119 ± 0.022	0.144 ± 0.019	0.203 ± 0.026	0.303 ± 0.022	0.199 ± 0.0044	0.201 ± 0.026	0.288 ± 0.043	0.308 ± 0.03
SHGKDVLNKINS	0.608 ± 0.019	0.763 ± 0.045	0.633 ± 0.025	0.72 ± 0.033	0.146 ± 0.0078	0.17 ± 0.013	0.23 ± 0.036	0.319 ± 0.077

Sequence	protein stability index (Saccharomyces cerevisiae [1]; [3])	protein stability index (Saccharomyces cerevisiae [1]; [4])	protein stability index (Saccharomyces cerevisiae [1]; [5])	protein stability index (Saccharomyces cerevisiae [1]; [6])	protein stability index (Saccharomyces cerevisiae [1]; [7])	protein stability index (Saccharomyces cerevisiae [1]; [8])	protein stability index (Saccharomyces cerevisiae [1]; [9])	protein stability index (Saccharomyces cerevisiae [2])
VCRVAAWLGWFV	0.522 ± 0.016	0.708 ± 0.024	0.637 ± 0.019	0.7292 ± 0.00075	0.0897 ± 0.012	0.0909 ± 0.024	0.1636 ± 0.0013	0.175 ± 0.025
VIGSFVRVFGIM	0.698 ± 0.024	0.751 ± 0.018	0.617 ± 0.017	0.728 ± 0.026	0.489 ± 0.041	0.506 ± 0.0097	0.6657 ± 0.00035	0.512 ± 0.12
PLCCFFLLVCSH	0.117 ± 0.022	0.166 ± 0.005	0.193 ± 0.019	0.2814 ± 0.002	0.165 ± 0.0015	0.176 ± 0.0079	0.221 ± 0.014	0.246 ± 0.023
AFFALGSFFFLL	0.631 ± 0.042	0.685 ± 0.0071	0.586 ± 0.039	0.7296 ± 0.0054	0.265 ± 0.0044	0.289 ± 0.03	0.519 ± 0.034	0.0874 ± 0.015
RLVWGGLEMFVC	0.511 ± 0.024	0.627 ± 0.013	0.496 ± 0.026	0.654 ± 0.0094	0.109 ± 0.019	0.131 ± 0.0028	0.21 ± 0.0073	0.235 ± 0.043
LASCRIVVIYSI	0.521 ± 0.029	0.52 ± 0.15	0.349 ± 0.036	0.5746 ± 0.0025	0.163 ± 0.0081	0.202 ± 0.022	0.364 ± 0.029	0.33 ± 0.068
LVVFFPVLPIFG	0.504 ± 0.02	0.554 ± 0.0072	0.394 ± 0.027	0.566 ± 0.016	0.383 ± 0.014	0.408 ± 0.0064	0.58 ± 0.077	0.4965 ± 0.0017
RRWGFRSFLVGI	0.728 ± 0.018	0.7869 ± 0.0035	0.712 ± 0.026	0.803 ± 0.026	0.645 ± 0.041	0.647 ± 0.022	0.7579 ± 0.0061	0.7307 ± 0.0056
ARRRYEVLAVLV	0.477 ± 0.024	0.522 ± 0.025	0.459 ± 0.041	0.5983 ± 0.0026	0.135 ± 0.0081	0.149 ± 0.024	0.149 ± 0.021	0.227 ± 0.0072
ESCVRSRRVLLC	0.564 ± 0.063	0.71 ± 0.032	0.621 ± 0.013	0.73 ± 0.027	0.129 ± 0.044	0.127 ± 0.017	0.196 ± 0.0075	0.221 ± 0.026
VMFWRGVWLSFC	0.313 ± 0.036	0.361 ± 0.049	0.45 ± 0.019	0.572 ± 0.03	0.23 ± 0.0033	0.197 ± 0.016	0.335 ± 0.011	0.268 ± 0.03
HFRFSRYIRWVL	0.619 ± 0.08	0.7004 ± 0.0021	0.653 ± 0.02	0.746 ± 0.0079	0.139 ± 0.0018	0.151 ± 0.016	0.332 ± 0.0057	0.237 ± 0.013
RDWCYFIRVCSV	0.604 ± 0.064	0.616 ± 0.017	0.479 ± 0.026	0.6139 ± 0.006	0.364 ± 0.015	0.382 ± 0.021	0.561 ± 0.01	0.383 ± 0.12
VLFIKKTLMRIQ	0.558 ± 0.008	0.685 ± 0.0057	0.621 ± 0.0064	0.66 ± 0.015	0.268 ± 0.025	0.331 ± 0.027	0.537 ± 0.045	0.396 ± 0.0084
LSITQLFCLCAV	0.317 ± 0.0048	0.337 ± 0.02	0.289 ± 0.031	0.4 ± 0.0069	0.2322 ± 0.0017	0.272 ± 0.016	0.356 ± 0.006	0.3742 ± 0.0031
QARVFWIIIGTA	0.33 ± 0.029	0.412 ± 0.03	0.241 ± 0.029	0.482 ± 0.011	0.163 ± 0.011	0.194 ± 0.026	0.376 ± 0.023	0.343 ± 0.0078
GLLGRSRLIFYN	0.721 ± 0.026	0.8063 ± 0.0023	0.661 ± 0.013	0.788 ± 0.01	0.427 ± 0.0058	0.458 ± 0.018	0.666 ± 0.0092	0.517 ± 0.088
MRMEGPLALSVR	0.5519 ± 0.005	0.558 ± 0.016	0.395 ± 0.028	0.558 ± 0.0087	0.353 ± 0.019	0.403 ± 0.017	0.551 ± 0.006	0.48 ± 0.011
WGFLRVMVDIEL	0.146 ± 0.014	0.223 ± 0.1	0.198 ± 0.024	0.32581 ± 9.3e-05	0.164 ± 0.0075	0.188 ± 0.023	0.303 ± 0.017	0.252 ± 0.016
